Experimental data reported in patent US20200172619A1 (UNIVERSIT T STUTTGART, published 2020).

Experiments:
[1] = target: T1, human TNFR1-Fc fusion protein (human, UniProt P19438 30-211); test: ELISA, human TNFR1-Fc (CHO-produced protein, Example 14)
T1 construct: Provided by Baliopharm AG; Coated at 1 ug/ml in the ELISA; also called huTNFR1-Fc; immobilized human TNFR1; not shown: Fc part not described
T1 sequence (looked up): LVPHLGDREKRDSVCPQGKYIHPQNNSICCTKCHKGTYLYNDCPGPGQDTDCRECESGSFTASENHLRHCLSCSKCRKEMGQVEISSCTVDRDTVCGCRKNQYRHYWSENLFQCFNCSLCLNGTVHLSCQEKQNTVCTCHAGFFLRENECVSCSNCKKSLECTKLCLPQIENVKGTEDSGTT
Procedure: (§1) Microtiter plates were coated with 100 μl of TNFFR1-Fc fusion protein (1 μg/ml in PBS) and incubated at 4° C. overnight. The residual binding sites were blocked with 2% MPBS (skim milk in PBS, 200 μl per well) at room temperature for 2 hours and subsequently washed twice with PBS. 100 μl of the samples diluted in 2% MPBS were incubated at room temperature for 1 hour prior to the last incubation step with 100 μl of the HRP conjugated detection antibodies in 2% MPBS. Bound protein was detected with 100 μl TMB substrate solution, the HRP-reaction was stopped by the addition of 50 μl 1 M H2SO4 and the absorption at the wavelength of 450 nm was measured using the Infinite microtiter plate reader (TECAN, Maennedorf, Switzerland). Between each incubation step and in advance of the detection, the plates were washed three times with PBST and twice with PBS.

[2] = target: T2, TNFR1 on the surface of cells (HT1080, HeLa, Kym-1) (human, UniProt P19438 30-455); test: cell-based or functional assay
T2 sequence (looked up): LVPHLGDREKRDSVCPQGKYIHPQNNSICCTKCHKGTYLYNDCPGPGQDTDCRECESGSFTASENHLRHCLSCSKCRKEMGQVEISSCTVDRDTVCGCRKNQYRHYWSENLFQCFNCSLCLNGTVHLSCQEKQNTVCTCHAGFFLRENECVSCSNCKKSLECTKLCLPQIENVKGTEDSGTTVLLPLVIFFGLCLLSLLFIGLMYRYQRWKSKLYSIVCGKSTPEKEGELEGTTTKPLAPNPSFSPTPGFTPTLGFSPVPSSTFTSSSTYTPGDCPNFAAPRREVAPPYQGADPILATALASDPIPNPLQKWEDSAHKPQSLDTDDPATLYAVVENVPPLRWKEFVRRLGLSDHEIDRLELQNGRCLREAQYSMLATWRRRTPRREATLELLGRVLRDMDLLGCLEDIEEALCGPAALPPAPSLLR

[3] = target: T2, TNFR1 on the surface of cells (HT1080, …); test: cell-based or functional assay; remark: listed apart in the source
[4] = target: T1, human TNFR1-Fc fusion protein; test: ELISA, immobilized human TNFR1-Fc
Procedure: as §1

[5] = target: T1, human TNFR1-Fc fusion protein; test: QCM (Attana), real-time binding, 128 nM to 4 nM, one-to-one fit
Procedure: (§2) FIG. 36. […] Five concentrations between 128 nM and 4 nM were used to generate the kinetic data in b) and a one-to-one binding algorithm was employed for fitting.

[6] = target: T1, human TNFR1-Fc fusion protein; test: QCM (Attana), real-time binding, one-to-one fit
Procedure: as §2

[7] = target: T2, TNFR1 on the surface of cells (HT1080, …); test: cell-based or functional assay; remark: listed apart in the source
[8] = target: T1, human TNFR1-Fc fusion protein; test: ELISA, immobilized human TNFR1-Fc; remark: listed apart in the source
[9] = target: T2, TNFR1 on the surface of cells (HT1080, …); test: cell-based or functional assay; remark: listed apart in the source
[10] = target: T2, TNFR1 on the surface of cells (HT1080, …); test: flow cytometry on TNFR1-expressing HT1080 cells
Procedure: (§3) Cells were detached and transferred to a 96 well microtiter plate at a concentration of 100.000-250.000 per well in 100 μl PBA (2% FCS, 0.2% NaN3 in sterile PBS).

[11] = target: T3, CD3 on the surface of CD3-transfected Jurkat cells; test: flow cytometry on CD3-transfected Jurkat cells
T3 construct: whole, on cells; also called CD3 expressing Jurkat cells
T3 sequence (P07766 23-207): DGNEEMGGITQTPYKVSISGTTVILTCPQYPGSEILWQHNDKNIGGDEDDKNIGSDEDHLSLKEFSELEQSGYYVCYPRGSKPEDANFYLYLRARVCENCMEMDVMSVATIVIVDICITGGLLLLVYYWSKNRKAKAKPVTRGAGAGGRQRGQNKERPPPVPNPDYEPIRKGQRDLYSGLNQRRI
Procedure: as §3

[12] = target: T1, human TNFR1-Fc fusion protein; test: ELISA, human TNFR1-Fc fusion protein
Procedure: Microtiter plates were coated with 100 μl of TNFFR1-Fc fusion protein (1 μg/ml in PBS) and incubated at 4° C. overnight.

B1: Fv13.7x-Fc1k (Fc fusion)
chain 1: HVQLVQSGAEVKKPGSSVKVSCKASGYTFTDFYINWVRQAPGQGLEWIGEIVPSQGEAKYNDKFKARVTITADKSTSTAYMELSSLRSEDTAVYYCARWDFLDYWGQGTTVTVSSGTGGGSGPSVFLFPPKPKDTLMISRTPEVTCVVVDVSHEDPEVKFNWYVDGVEVHNAKTKPREEQYNSTYRVVSVLTVLHQDWLNGKEYKCKVSNKGLPSSIEKTISKAKGQPREPSVFIFPPSDEQLKSGTASVVCLVNNFYPRDIAVEWEVDNALQSGNSQESVTEQDSKDSTYSLSSTLTLSKADYEKHKVYSCSVMHEALHNHYTQKSFNRGEC
chain 2: DVQMTQSPSSLSASVGDRVTITCRSSQSLLHSNGNTYLHWYQQKPGKAPKLLIYTVSNRFSGVPSRFSGSGSGTDFTLTISSLQPEDFATYYCSQSTHVPYTFGGGTKVEIKGTGGGSGPSVFLFPPKPKDTLMISRTPEVTCVVVDVSHEDPEVKFNWYVDGVEVHNAKTKPREEQYNSTYRVVSVLTVLHQDWLNGKEYKCKVSNKGLPSSIEKTISKAKGQPREPSVFPLAPSSKSTSGGTAALGCLVKDYFPSDIAVEWESGALTSGVHTFPAVLQSSGLYSLSSVVTVPSSSLGTQTYSCSVMHEALHNHYTQKSVEPKSC
notes: CH2 carries A327G, A330S and P331S (EU numbering)
How did the EC50 [1] turn out when B1 was run?
Its EC50 is 0.37 nM.

And the “IL-8 Inhibition IC50” value [2]?
Its value is 48 nM.

What about the “factor of increased inhibitory potential (IL-8 inhibition) compared to ATROSAB” value [3] of the same binder?
Its value is 2.8 fold.

And the “fold reduced bioactivity (IL-8 inhibition) compared to Fab13.7” value [3]?
The value was 3.7 fold.

And the “fold reduced binding affinity compared with Fab13.7” value [4]?
Its value is 2.1 fold.

What about the Kd [5] of the same binder?
The Kd was 2.66 nM.

And the koff [6]?
Its koff is 0.000983 s⁻¹.

And the kon [6]?
The kon was 369000 M⁻¹ s⁻¹.

What about the “IC50, Cell death induction [nM] (Kym-1 cells, 0.01 nM TNF)” value [7] of the same binder?
Its value is 16.2 nM.

What about the “IC50, IL-6 [nM] (HeLa cells, 0.1 nM TNF)” value [7] of the same binder?
The value was 54.5 nM.

What about the “IC50, IL-8 [nM] (HT1080 cells, 0.1 nM TNF)” value [7] of the same binder?
The value was 24.2 nM.

What about the EC50 [8] of the same binder?
The EC50 was 1.9 nM.

B2: 13.7N-CD3N-hFc1k (bispecific antibody)
chain 1: HVQLVQSGAEVKKPGSSVKVSCKASGYTFTDFYINWVRQAPGQGLEWIGEIVPSQGEAKYNDKFKARVTITADKSTSTAYMELSSLRSEDTAVYYCARWDFLDYWGQGTTVTVSSGGGGSGGGGSGGGGSDVQMTQSPSSLSASVGDRVTITCRSSQSLLHSNGNTYLHWYQQKPGKAPKLLIYTVSNRFSGVPSRFSGSGSGTDFTLTISSLQPEDFATYYCSQSTHVPYTFGGGTKVEIKAAADKTHTCPPCPAPPVAGPSVFLFPPKPKDTLMISRTPEVTCVVVDVSHEDPEVKFNWYVDGVEVHNAKTKPREEQYNSTYRVVSVLTVLHQDWLNGKEYKCKVSNKGLPSSIEKTISKAKGQPREPSVFPLAPSSKSTSGGTAALGCLVKDYFPSDIAVEWESGALTSGVHTFPAVLQSSGLYSLSSVVTVPSSSLGTQTYSCSVMHEALHNHYTQKSVEPKSC
chain 2: DIQMTQSPSSLSASVGDRVTITCRASQDIRNYLNWYQQKPGKAPKLLIYYTSRLHSGVPSRFSGSGSGTDFTFTISSLQPEDIATYYCQQGNTLPWTFGQGTKLEIKRGGGGSGGGGSGGGGSQVQLVQSGAEVKKPGSSVKVSCKASGGTFSGYTMNWVRQAPGQGLEWMGLINPYKGVSTYNGKFKDRVTITADKSTSTAYMELSSLRSEDTAVYYCARSGYYGDSDWYFDVWGQGTLVTVSSSGGGSGGGGSDKTHTCPPCPAPPVAGPSVFLFPPKPKDTLMISRTPEVTCVVVDVSHEDPEVKFNWYVDGVEVHNAKTKPREEQYNSTYRVVSVLTVLHQDWLNGKEYKCKVSNKGLPSSIEKTISKAKGQPREPSVFIFPPSDEQLKSGTASVVCLVNNFYPRDIAVEWEVDNALQSGNSQESVTEQDSKDSTYSLSSTLTLSKADYEKHKVYSCSVMHEALHNHYTQKSFNRGECGGGGSGGGGSGGGGSGTGGSGG
notes: also called scFv13.7-CD3-Hinge-Fc1k
What does the source list for B2?
Cytotxicity IC50 [9]: 0.8 nM; EC50 [10]: 3.7 nM; EC50 [11]: 1.6 nM; EC50 [12]: 3.5 nM
